These results are taken from US20180291343.

Data set [1] relates to TALEN Beta2M T01 RIGHT (artificial). Briefly: cell_activity. The note with it: primary T cells, 10 ug TALEN mRNA as pair with left monomer, 3 days post electroporation; 38% at 2 ug; untransfected nearly 100% positive.
Data set [2] has as its system TALEN Beta2M T01 LEFT (artificial). The experiment in a line: cell_activity. The conditions noted are these: primary T cells, 10 ug TALEN mRNA as pair with right monomer, 3 days post electroporation; 38% at 2 ug; untransfected nearly 100% positive.

On to “TTCTGGCCTGGAGGCTA (double strand) [B2M T01 target, right half-site]”, for which the activity (% beta2-m negative cells) in data set [1] worked out at 80.

As for “TGGCCTTAGCTGTGCTC (double strand) [B2M T01 target, left half-site]”, the activity (% beta2-m negative cells) in data set [2] is 80.
